Assay results as given in IntAct's records for PubMed 25416956.

B1: EF-hand domain-containing protein 1 (Homo sapiens), Q5JVL4 (parent)
chain: MVSNPVHGLPFLPGTSFKDSTKTAFHRSQTLSYRNGYAIVRRPTVGIGGDRLQFNQLSQAELDELASKAPVLTYGQPKQAPPADFIPAHVAFDKKVLKFDAYFQEDVPMSTEEQYRIRQVNIYYYLEDDSMSVIEPVVENSGILQGKLIKRQRLAKNDRGDHYHWKDLNRGINITIYGKTFRVVDCDQFTQVFLESQGIELNPPEKMALDPYTELRKQPLRKYVTPSDFDQLKQFLTFDKQVLRFYAIWDDTDSMYGECRTYIIHYYLMDDTVEIREVHERNDGRDPFPLLMNRQRVPKVLVENAKNFPQCVLEISDQEVLEWYTAKDFIVGKSLTILGRTFFIYDCDPFTRRYYKEKFGITDLPRIDVSKREPPPVKQELPPYNGFGLVEDSAQNCFALIPKAPKKDVIKMLVNDNKVLRYLAVLESPIPEDKDRRFVFSYFLATDMISIFEPPVRNSGIIGGKYLGRTKVVKPYSTVDNPVYYGPSDFFIGAVIEVFGHRFIILDTDEYVLKYMESNAAQYSPEALASIQNHVRKREAPAPEAESKQTEKDPGVQELEALIDTIQKQLKDHSCKDNIREAFQIYDKEASGYVDRDMFFKICESLNVPVDDSLVKELIRMCSHGEGKINYYNFVRAFSN
B2: Tumor necrosis factor receptor superfamily member 13B (Homo sapiens), O14836 (parent)
chain: MSGLGRSRRGGRSRVDQEERFPQGLWTGVAMRSCPEEQYWDPLLGTCMSCKTICNHQSQRTCAAFCRSLSCRKEQGKFYDHLLRDCISCASICGQHPKQCAYFCENKLRSPVNLPPELRRQRSGEVENNSDNSGRYQGLEHRGSEASPALPGLKLSADQVALVYSTLGLCLCAVLCCFLVAVACFLKKRGDPCSCQPRSRPRQSPAKSSQDHAMEAGSPVSTSPEPVETCSFCFPECRAPTQESAVTPGTPDPTCAGRWGCHTRTTVLQPCPHIPDSGLGIVCVPAQEGGPGA
B3: Keratin, type II cytoskeletal 2 epidermal (Homo sapiens), P35908 (parent)
chain: MSCQISCKSRGRGGGGGGFRGFSSGSAVVSGGSRRSTSSFSCLSRHGGGGGGFGGGGFGSRSLVGLGGTKSISISVAGGGGGFGAAGGFGGRGGGFGGGSSFGGGSGFSGGGFGGGGFGGGRFGGFGGPGGVGGLGGPGGFGPGGYPGGIHEVSVNQSLLQPLNVKVDPEIQNVKAQEREQIKTLNNKFASFIDKVRFLEQQNQVLQTKWELLQQMNVGTRPINLEPIFQGYIDSLKRYLDGLTAERTSQNSELNNMQDLVEDYKKKYEDEINKRTAAENDFVTLKKDVDNAYMIKVELQSKVDLLNQEIEFLKVLYDAEISQIHQSVTDTNVILSMDNSRNLDLDSIIAEVKAQYEEIAQRSKEEAEALYHSKYEELQVTVGRHGDSLKEIKIEISELNRVIQRLQGEIAHVKKQCKNVQDAIADAEQRGEHALKDARNKLNDLEEALQQAKEDLARLLRDYQELMNVKLALDVEIATYRKLLEGEECRMSGDLSSNVTVSVTSSTISSNVASKAAFGGSGGRGSSSGGGYSSGSSSYGSGGRQSGSRGGSGGGGSISGGGYGSGGGSGGRYGSGGGSKGGSISGGGYGSGGGKHSSGGGSRGGSSSGGGYGSGGGGSSSVKGSSGEAFGSSVTFSFR
partner: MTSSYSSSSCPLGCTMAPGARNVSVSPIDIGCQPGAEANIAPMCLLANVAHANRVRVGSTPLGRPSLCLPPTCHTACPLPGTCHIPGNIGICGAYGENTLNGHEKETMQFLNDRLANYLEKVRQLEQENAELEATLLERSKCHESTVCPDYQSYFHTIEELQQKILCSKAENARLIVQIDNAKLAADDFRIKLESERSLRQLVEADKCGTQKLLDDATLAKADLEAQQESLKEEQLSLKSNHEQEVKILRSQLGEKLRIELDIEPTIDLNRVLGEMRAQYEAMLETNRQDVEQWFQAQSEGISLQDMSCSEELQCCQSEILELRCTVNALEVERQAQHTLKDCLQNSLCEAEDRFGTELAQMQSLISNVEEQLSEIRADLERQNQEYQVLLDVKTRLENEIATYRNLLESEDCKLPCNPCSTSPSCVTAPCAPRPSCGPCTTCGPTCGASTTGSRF
B4: Keratin, type II cytoskeletal 6A (Homo sapiens), P02538 (parent)
chain: MASTSTTIRSHSSSRRGFSANSARLPGVSRSGFSSVSVSRSRGSGGLGGACGGAGFGSRSLYGLGGSKRISIGGGSCAISGGYGSRAGGSYGFGGAGSGFGFGGGAGIGFGLGGGAGLAGGFGGPGFPVCPPGGIQEVTVNQSLLTPLNLQIDPTIQRVRAEEREQIKTLNNKFASFIDKVRFLEQQNKVLETKWTLLQEQGTKTVRQNLEPLFEQYINNLRRQLDSIVGERGRLDSELRGMQDLVEDFKNKYEDEINKRTAAENEFVTLKKDVDAAYMNKVELQAKADTLTDEINFLRALYDAELSQMQTHISDTSVVLSMDNNRNLDLDSIIAEVKAQYEEIAQRSRAEAESWYQTKYEELQVTAGRHGDDLRNTKQEIAEINRMIQRLRSEIDHVKKQCANLQAAIADAEQRGEMALKDAKNKLEGLEDALQKAKQDLARLLKEYQELMNVKLALDVEIATYRKLLEGEECRLNGEGVGQVNISVVQSTVSSGYGGASGVGSGLGLGGGSSYSYGSGLGVGGGFSSSSGRAIGGGLSSVGGGSSTIKYTTTSSSSRKSYKH
partner: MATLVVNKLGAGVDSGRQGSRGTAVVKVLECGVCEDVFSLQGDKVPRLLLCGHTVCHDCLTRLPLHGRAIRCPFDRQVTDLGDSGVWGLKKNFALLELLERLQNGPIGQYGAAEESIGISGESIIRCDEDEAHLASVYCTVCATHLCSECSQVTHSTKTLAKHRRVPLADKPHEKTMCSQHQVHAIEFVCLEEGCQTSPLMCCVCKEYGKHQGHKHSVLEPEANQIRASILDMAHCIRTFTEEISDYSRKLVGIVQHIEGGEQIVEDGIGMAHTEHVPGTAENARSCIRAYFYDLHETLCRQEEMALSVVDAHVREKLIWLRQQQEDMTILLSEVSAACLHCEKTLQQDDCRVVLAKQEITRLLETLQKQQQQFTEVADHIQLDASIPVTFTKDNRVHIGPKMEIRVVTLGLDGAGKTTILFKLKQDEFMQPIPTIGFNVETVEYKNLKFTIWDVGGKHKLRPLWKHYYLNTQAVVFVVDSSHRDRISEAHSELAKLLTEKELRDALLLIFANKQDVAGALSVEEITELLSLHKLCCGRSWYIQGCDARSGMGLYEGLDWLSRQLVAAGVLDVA

Variants of: B1
Conditions: with itf2_human TCF4, P15884
Chain of itf2_human TCF4, P15884 (P15884 whole entry): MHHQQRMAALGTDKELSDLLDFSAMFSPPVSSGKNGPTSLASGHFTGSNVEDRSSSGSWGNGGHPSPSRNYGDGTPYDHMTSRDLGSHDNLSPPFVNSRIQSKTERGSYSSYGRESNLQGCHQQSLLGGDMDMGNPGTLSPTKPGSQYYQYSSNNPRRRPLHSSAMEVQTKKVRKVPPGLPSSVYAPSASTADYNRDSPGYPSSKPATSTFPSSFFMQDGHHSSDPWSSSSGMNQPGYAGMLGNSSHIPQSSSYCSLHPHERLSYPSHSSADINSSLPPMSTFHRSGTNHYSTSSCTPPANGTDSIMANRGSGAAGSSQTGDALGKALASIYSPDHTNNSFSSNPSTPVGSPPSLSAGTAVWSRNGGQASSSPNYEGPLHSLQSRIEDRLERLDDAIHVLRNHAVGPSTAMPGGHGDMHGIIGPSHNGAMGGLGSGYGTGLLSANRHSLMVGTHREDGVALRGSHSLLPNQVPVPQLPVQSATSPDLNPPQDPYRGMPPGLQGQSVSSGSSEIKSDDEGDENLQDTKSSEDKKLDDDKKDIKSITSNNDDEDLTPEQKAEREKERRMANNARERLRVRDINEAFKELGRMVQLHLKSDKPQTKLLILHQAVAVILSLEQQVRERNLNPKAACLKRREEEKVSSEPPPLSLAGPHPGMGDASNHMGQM

Row | effect of a mutation on the interaction | Variant
1 | disrupting interaction | A394S

Variants of: B1
Conditions: with ikzf3_human IKZF3, Q9UKT9
Chain of ikzf3_human IKZF3, Q9UKT9 (Q9UKT9 whole entry): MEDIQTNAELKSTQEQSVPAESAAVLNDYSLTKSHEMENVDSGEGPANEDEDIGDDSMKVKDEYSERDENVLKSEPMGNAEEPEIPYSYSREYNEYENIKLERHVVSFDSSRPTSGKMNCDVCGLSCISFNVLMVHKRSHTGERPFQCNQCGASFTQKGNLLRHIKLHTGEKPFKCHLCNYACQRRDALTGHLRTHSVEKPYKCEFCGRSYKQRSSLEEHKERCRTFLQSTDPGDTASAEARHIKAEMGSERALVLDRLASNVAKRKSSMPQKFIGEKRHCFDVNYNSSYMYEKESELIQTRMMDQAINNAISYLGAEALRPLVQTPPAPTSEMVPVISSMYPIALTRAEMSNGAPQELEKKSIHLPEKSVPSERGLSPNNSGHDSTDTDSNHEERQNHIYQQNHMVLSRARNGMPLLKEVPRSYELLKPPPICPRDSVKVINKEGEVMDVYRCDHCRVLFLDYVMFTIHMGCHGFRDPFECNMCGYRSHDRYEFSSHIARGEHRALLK

Row | effect of a mutation on the interaction | Variant
2 | disrupting interaction | A394S

Variants of: B1
Conditions: with itf2_human TCF4, P15884
Remark: another data set of the same source

Row | effect of a mutation on the interaction | Variant
3 | disrupting interaction | R221H

Variants of: B1
Conditions: with ikzf3_human IKZF3, Q9UKT9
Remark: another data set of the same source

Row | effect of a mutation on the interaction | Variant
4 | disrupting interaction | R221H

Variants of: B1
Conditions: with itf2_human TCF4, P15884
Remark: another data set of the same source

Row | effect of a mutation on the interaction | Variant
5 | disrupting interaction | P77T

Variants of: B1
Conditions: with ikzf3_human IKZF3, Q9UKT9
Remark: another data set of the same source

Row | effect of a mutation on the interaction | Variant
6 | disrupting interaction | P77T

Variants of: B2
Conditions: with sgta_human SGTA

Row | effect of a mutation on the interaction | Variant
7 | disrupting interaction | E125R

Variants of: B3
Conditions: with krt38_human KRT38, O76015

Row | effect of a mutation on the interaction | Variant
8 | disrupting interaction | I477N

Variants of: B4
Conditions: with tri23_human TRIM23, P36406

Row | effect of a mutation on the interaction | Variant
9 | disrupting interaction | I462S
